From paper PMC4155688, “Mapping the Putative G Protein-coupled Receptor (GPCR) Docking Site on GPCR Kinase 2” (The Journal of Biological Chemistry, 2014) come the findings set out here.

First the molecules themselves.
B1: RlucII-GRK2 (wild type) [human] / α2AAR-GFP^2 [not stated] (parent)
chain 1: MADLEAVLADVSYLMAMEKSKATPAARASKKILLPEPSIRSVMQKYLEDRGEVTFEKIFSQKLGYLLFRDFCLNHLEEARPLVEFYEEIKKYEKLETEEERVARSREIFDSYIMKELLACSHPFSKSATEHVQGHLGKKQVPPDLFQPYIEEICQNLRGDVFQKFIESDKFTRFCQWKNVELNIHLTMNDFSVHRIIGRGGFGEVYGCRKADTGKMYAMKCLDKKRIKMKQGETLALNERIMLSLVSTGDCPFIVCMSYAFHTPDKLSFILDLMNGGDLHYHLSQHGVFSEADMRFYAAEIILGLEHMHNRFVVYRDLKPANILLDEHGHVRISDLGLACDFSKKKPHASVGTHGYMAPEVLQKGVAYDSSADWFSLGCMLFKLLRGHSPFRQHKTKDKHEIDRMTLTMAVELPDSFSPELRSLLEGLLQRDVNRRLGCLGRGAQEVKESPFFRSLDWQMVFLQKYPPPLIPPRGEVNAADAFDIGSFDEEDTKGIKLLDSDQELYRNFPLTISERWQQEVAETVFDTINAETDRLEARKKAKNKQLGHEEDYALGKDCIMHGYMSKMGNPFLTQWQRRYFYLFPNRLEWRGEGEAPQSLLTMEEIQSVEETQIKERKCLLLKIRGGKQFILQCDSDPELVQWKKELRDAYREAQQLVQRVPKMKNKPRSPVVELSKVPLVQRGSANGL
chain 2: MFRQEQPLAEGSFAPMGSLQPDAGNASWNGTEAPGGGARATPYSLQVTLTLVCLAGLLMLLTVFGNVLVIIAVFTSRALKAPQNLFLVSLASADILVATLVIPFSLANEVMGYWYFGKAWCEIYLALDVLFCTSSIVHLCAISLDRYWSITQAIEYNLKRTPRRIKAIIITVWVISAVISFPPLISIEKKGGGGGPQPAEPRCEINDQKWYVISSCIGSFFAPCLIMILVYVRIYQIAKRRTRVPPSRRGPDAVAAPPGGTERRPNGLGPERSAGPGGAEAEPLPTQLNGAPGEPAPAGPRDTDALDLEESSSSDHAERPPGPRRPERGPRGKGKARASQVKPGDSLPRRGPGATGIGTPAAGPGEERVGAAKASRWRGRQNREKRFTFVLAVVIGVFVVCWFPFFFTYTLTAVGCSVPRTLFKFFFWFGYCNSSLNPVIYTIFNHDFRRAFKKILCRGDRKRIV

The variants in the first experiment derive from B1. The experiment is described as follows: BRET. The note with it: with α2AAR-GFP^2; HEK293T cells; 100 μm NOR for 6 min; read off a plot. For orientation: BRET reads energy transfer from a luciferase to a nearby fluorophore.
chain 1 I485A: the response worked out at 0.018. The same measure, in the same setting: for chain 1 E18A the value was 0.05; for chain 1 G475I, 0.016; for chain 1 D10A, 0.026.

chain 1 D10R: the response amounted to 0.041. For the variant chain 1 A482I, the response amounted to 0.059. On the same count and under the same terms, with chain 1 M15A the figure was 0.027; with chain 1 D481A, 0.049. On the same count and under the same terms, for chain 1 D3A the value was 0.026; for chain 1 P473E, 0.033. Same read-out and setting: with chain 1 K220R the figure was 0.032.

In another experiment the parent is B1. Put plainly: BRET dose-response. As to conditions: with α2AAR-GFP^2; HEK293T cells; point at highest NOR concentration, log [NOR] = -3; read off a plot.
For chain 1 K220R, the response stood at 0.031.
